# T1: murine prolactin receptor on cells (HEK293 and Ba/F cells stably transfected with murine PRLR) (mouse, UniProt Q08501 20-608)
# T1 sequence (looked up): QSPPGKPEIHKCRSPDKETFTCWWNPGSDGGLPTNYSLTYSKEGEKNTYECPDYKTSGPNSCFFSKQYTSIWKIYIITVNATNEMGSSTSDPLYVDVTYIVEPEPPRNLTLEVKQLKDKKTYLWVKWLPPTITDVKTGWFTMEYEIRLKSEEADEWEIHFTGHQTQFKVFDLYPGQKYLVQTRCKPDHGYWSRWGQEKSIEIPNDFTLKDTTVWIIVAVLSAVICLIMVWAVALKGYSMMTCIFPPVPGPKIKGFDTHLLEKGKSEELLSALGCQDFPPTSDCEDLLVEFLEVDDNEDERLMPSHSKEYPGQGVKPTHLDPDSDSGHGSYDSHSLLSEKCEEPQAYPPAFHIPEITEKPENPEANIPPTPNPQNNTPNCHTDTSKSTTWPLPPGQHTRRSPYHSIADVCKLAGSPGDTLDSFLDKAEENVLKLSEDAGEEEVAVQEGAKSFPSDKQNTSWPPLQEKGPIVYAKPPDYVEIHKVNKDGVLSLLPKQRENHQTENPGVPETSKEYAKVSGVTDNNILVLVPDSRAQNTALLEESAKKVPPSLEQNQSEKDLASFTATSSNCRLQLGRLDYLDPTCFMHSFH
# T2: extracellular domain of human PRLR (soluble, monomeric, expressed in HEK293 cells) (human, UniProt P16471 25-234)
# T2 construct: also called ECD-PRLR; ECD of PRLR
# T2 sequence: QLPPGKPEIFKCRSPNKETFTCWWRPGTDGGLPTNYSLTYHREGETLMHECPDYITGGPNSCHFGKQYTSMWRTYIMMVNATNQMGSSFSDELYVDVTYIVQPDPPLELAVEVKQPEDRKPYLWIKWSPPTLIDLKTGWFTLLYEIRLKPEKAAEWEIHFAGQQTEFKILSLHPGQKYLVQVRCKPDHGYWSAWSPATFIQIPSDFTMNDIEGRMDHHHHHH
# Target: T1, murine prolactin receptor on cells …
# Assay: cell-based or functional assay
Binder,"IC50, inhibition of prolactin-activated proliferation of Ba/F cells stably expressing the murine prolactin receptor","IC50, prolactin-activated luciferase reporter gene activity, HEK293 cells stably transfected with mPRLR"
"005-C04 (human IgG1) (antibody, V domains shown) VH: EVQLLESGGGLVQPGGSLRLSCAASGFTFSSYWMHWVRQAPGKGLEWVSDISSASSYTNYADSVKGRFTISRDNSKNTLYLQMNSLRAEDTAVYYCARGLDARRMDYWGQGTLVTVSS VL: QSVLTQPPSASGTPGQRVTISCTGSSSNIGAGYVVHWYQQLPGTAPKLLIYRNNQRPSGVPDRFSGSKSGTSASLAISGLRSEDEADYYCAAWDDSLNGWLFGGGTKLTVLG",0.74 µg/mL,0.45 µg/mL
"001-E06 (human IgG1) (antibody, V domains shown) VH: QVELLESGGGLVQPGGSLRLSCAASGFTFSSYWMSWVRQAPGKGLEWVSSVSDTGTDTHYADSVKGRFTISRDNSKNTLYLQMNSLRAEDTAVYYCAKTPLAYSSGWYYFDYWGQGTLVTVSS VL: DIVLTQPPSASGTPGQRVTISCSGSSSNIGSNTVNWYQQLPGTAPKLLIYRNYQRPSGVPDRFSGSKSGTSASLAISGLRSEDEADYYCQSYDSSLSGSVFGGGTKLTVLG",43.7 µg/mL,
"XHA06.642 (antibody, human IgG1, V domains shown) VH: EVQLVESGGDLVKPGGSLKLSCAVSGFTFSSYGMSWVRQTPDKRLEWVATVSSGGTYTYYPDSVKGRFTISRDNAKNTLYLQMSSLKSEDSAMYYCARHRGNYYATYYYAMDYWGQGTSVTVSS VL: DIVLTQSPASLAVSLGQGATISCRASKSVSTSGYTYMHWYQQKPGQPPKLLIYLASNLESGVPARFSGSGSGTDFTLNIHPVEEEDAATYYCQHSGELPPSFGGGTKLEIKR",,> 50 µg/mL

# Target: T2, extracellular domain of human PRLR …
# Assay: HTRF competition: Fab-containing E. coli supernatant with biotinylated ECD of human PRLR and streptavidin-europium, then Alexa Fluor 647-labelled IgG1 006-H08 as competitor; signal at 665 nm after 5 to 65 min; lower signal than control Fab 006-H08 = improved binding [Figure 21]
# Description: Normalized E. coli-derived supernatants and 8 nM biotinylated extracellular domain of PRLR together with 1 nM Streptavidin-Europium were incubated in 96 well-microtiter plates for 30 min. Afterwards 200 mM KF and 50 nM Alexa Fluor 647-labeled IgG1 of 006-H08 were added. This mixture was incubated at room temperature for 5, 20, 35, 50, and 65 minutes, respectively. At the indicated time points, the absorption at 665 nm (and 620 nm) was measured using EnVision MultilabelReader (Perkin Elmer).
row,Binder,binding result
1,"006-H08-53-27-0 (Fab, V domains shown, Tested as E. coli supernatant; also called maturated 006-H08 Fab variant; copies: 1 + 1) VH: EVQLLESGGGLVQPGGSLRLSCAASGFTFDDYGMSWVRQAPGKGLEMVAVISYDGSNKYYADSVKGRFTISRDNSQNTLYLQMNSLRAEDTAVYYCASPLESPVAFDIWGQGTLVTVSS VL: QSVLTQPPSASGTPGQRVTISCSGSNSNIGSNPVNWYQQLPGTAPKLLIYDNNKRPSGVPDRFSGSKSGTSASLAISGLRSEDEADYYCQSYDTGLSGWVFGGGTKLTVL",binds
2,"006-H08-37-19-0 (Fab, V domains shown, Tested as E. coli supernatant; also called maturated 006-H08 Fab variant; copies: 1 + 1) VH: EVQLLESGGGLVQPGGSLRLSCAASGFTFDDYGMSWVRQAPGKGLEWVAVISYDGSNKYYADSVKGRFTISRDNSQNTLYLQMNSLRAEDTAVYYCASPLESPVAFDIWGQGTLVTVSS VL: QSVLTQPPSASGTPGQRVTISCSGSNSNIGSNPVNWYQQLPGTAPKLLIYDNNKRPSGVPDRFSGSKSGTSASLAISGLRSEDEADYYCQSYDTGLSMWVFGGGTKLTVL",binds
3,"006-H08-59-30-0 (Fab, V domains shown, Tested as E. coli supernatant; also called maturated 006-H08 Fab variant; copies: 1 + 1) VH: EVQLLESGGGLVQPGGSLRLSCAASGFTFDDYGMSWVRQAPGKGLEWVAVISFDGSNKYYADSVKGRFTISRDNSQNTLYLQMNSLRAEDTAVYYCASPLESPVAFDIWGQGTLVTVSS VL: QSVLTQPPSASGTPGQRVTISCSGSNSNIGSNPVNWYQQLPGTAPKLLIYDNNKRPSGVPDRFSGSKSGTSASLAISGLRSEDEADYYCQSYDTGLSGWVFGGGTKLTVL",binds
4,"006-H08-36-17-0 (Fab, V domains shown, Tested as E. coli supernatant; also called maturated 006-H08 Fab variant; copies: 1 + 1) VH: EVQLLESGGGLVQPGGSLRLSCAASGFTFDDYGMSWVRQAPGKGLEWVAVISYDGSNKYYADSVKGRFTISRDNSQNTLYLQMNSLRAEDTAVYYCASPLESPVAFDIWGQGTLVTVSS VL: QSVLTQPPSASGTPGQRVTISCSGSNSNIGSNPVNWYQQLPGTAPKLLIYDNNKRPSGVPDRFSGSKSGTSASLAISGLRSEDEADYYCQSYDTGLGGWVFGGGTKLTVL",binds
5,"006-H08-14-6-0 (Fab, V domains shown, Tested as E. coli supernatant; also called maturated 006-H08 Fab variant; copies: 1 + 1) VH: EVQLLESGGGLVQPGGSLRLSCAASGFTFDDYGMSWVRQAPGKGLEWVAVISYDGSNKYYADSVKGRFTISRDNSQNTLYLQMNSLRAEDTAVYYCASPLESPVAFDIWGQGTLVTVSS VL: QSVLTQPPSASGTPGQRVTISCSGSNSNIGSSPVNWYQQLPGTAPKLLIYDNNKRPSGVPDRFSGSKSGTSASLAISGLRSEDEADYYCQSYDTGLSGWVFGGGTKLTVL",binds
6,"006-H08-63-32-4 (Fab, V domains shown, Tested as E. coli supernatant; also called maturated 006-H08 Fab variant; copies: 1 + 1) VH: EVQLLESGGGLVQPGGSLRLSCAASGFTFDDYGMSWVRQAPGKGLEWVAVISYDGSNKYYADSVKGRFTISRDNSQNTLYLQMNSLRAEDTAVYYCASPLESPVAFDIWGQGTLVTVSS VL: QSVLTQPPSASGTPGQRVTISCSGLNSNIGSNPVNWYQQLPGTAPKLLIYDNNKRPSGVPDRFSGSKSGTSASLAISGLRSEDEADYYCQSYDTGLSGWVFGGGTKLTVL",binds
7,"006-H08-33-16-0 (Fab, V domains shown, Tested as E. coli supernatant; also called maturated 006-H08 Fab variant; copies: 1 + 1) VH: EVQLLESGGGLVQPGGSLRLSCAASGFTFDDYGMSWVRQAPGKGLEWVAVISYDGSNKYYADSVKGRFTISRDNSQNTLYLQMNSLRAEDTAVYYCASPLESPVAFDIWGQGTLVTVSS VL: QSVLTQPPSASGTPGQRVTISCSGSNSNIGSNPVNWYQQLPGTAPKLLIYDNNKRPSGVPDRFSGSKSGTSASLAISGLRSEDEADYYCQSYDEGLSGWVFGGGTKLTVL",binds
8,"006-H08-65-33-2 (Fab, V domains shown, Tested as E. coli supernatant; also called maturated 006-H08 Fab variant; copies: 1 + 1) VH: EVQLLESGGGLVQPGGSLRLSCAASGFTFDDYGMSWVRQAPGKGLEWVAVISYDGSNKYYADSVKGRFTISRDNSQNTLYLQMNSLRAEDTAVYYCASPLESPVAFDIWGQGTLVTVSS VL: QSVLTQPPSASGTPGQRVTISCSGSNDNIGSNPVNWYQQLPGTAPKLLIYDNNKRPSGVPDRFSGSKSGTSASLAISGLRSEDEADYYCQSYDTGLSGWVFGGGTKLTVL",binds
9,"006-H08-35-17-1 (Fab, V domains shown, Tested as E. coli supernatant; also called maturated 006-H08 Fab variant; copies: 1 + 1) VH: EVQLLESGGGLVQPGGSLRLSCAASGFTFDDYGMSWVRQAPGKGLEWVAVISYDGSNKYYADSVKGRFTISRDNSQNTLYLQMNSLRAEDTAVYYCASPLESPVAFDIWGQGTLVTVSS VL: QSVLTQPPSASGTPGQRVTISCSGSNSNIGSNPVNWYQQLPGTAPKLLIYDNNKRPSGVPDRFSGSKSGTSASLAISGLRSEDEADYYCQSYDTGASGWVFGGGTKLTVL",binds
10,"006-H08-35-17-4 (Fab, V domains shown, Tested as E. coli supernatant; also called maturated 006-H08 Fab variant; copies: 1 + 1) VH: EVQLLESGGGLVQPGGSLRLSCAASGFTFDDYGMSWVRQAPGKGLEWVAVISYDGSNKYYADSVKGRFTISRDNSQNTLYLQMNSLRAEDTAVYYCASPLESPVAFDIWGQGTLVTVSS VL: QSVLTQPPSASGTPGQRVTISCSGSNSNIGSNPVNWYQQLPGTAPKLLIYDNNKRPSGVPDRFSGSKSGTSASLAISGLRSEDEADYYCQSYDTGSSGWVFGGGTKLTVL",binds
11,"006-H08-32-2 (Fab, V domains shown, Tested as E. coli supernatant; also called maturated 006-H08 Fab variant; copies: 1 + 1) VH: EVQLLESGGGLVQPGGSLRLSCAASGFTFDDYGMSWVRQAPGKGLEMVAVISFDGSNKYYADSVKGRFTISRDNSQNTLYLQMNSLRAEDTAVYYCASPLESPVAFDIWGQGTLVTVSS VL: QSVLTQPPSASGTPGQRVTISCSGLNSNVGSNPVNWYQQLPGTAPKLLIYDNNKRPSGVPDRFSGSKSGTSASLAISGLRSEDEADYYCQSYDEGLGGWVFGGGTKLTVL",binds
12,"006-H08-68-35-2 (Fab, V domains shown, Tested as E. coli supernatant; also called maturated 006-H08 Fab variant; copies: 1 + 1) VH: EVQLLESGGGLVQPGGSLRLSCAASGFTFDDYGMSWVRQAPGKGLEWVAVISYDGSNKYYADSVKGRFTISRDNSQNTLYLQMNSLRAEDTAVYYCASPLESPVAFDIWGQGTLVTVSS VL: QSVLTQPPSASGTPGQRVTISCSGSNSNVGSNPVNWYQQLPGTAPKLLIYDNNKRPSGVPDRFSGSKSGTSASLAISGLRSEDEADYYCQSYDTGLSGWVFGGGTKLTVL",binds
13,"006-H08-13-6-1 (Fab, V domains shown, Tested as E. coli supernatant; also called maturated 006-H08 Fab variant; copies: 1 + 1) VH: EVQLLESGGGLVQPGGSLRLSCAASGFTFDDYGMSWVRQAPGKGLEWVAVISYDGSNKYYADSVKGRFTISRDNSQNTLYLQMNSLRAEDTAVYYCASPLESPVAFDIWGQGTLVTVSS VL: QSVLTQPPSASGTPGQRVTISCSGSNSNIGGNPVNWYQQLPGTAPKLLIYDNNKRPSGVPDRFSGSKSGTSASLAISGLRSEDEADYYCQSYDTGLSGWVFGGGTKLTVL",binds

# From patent US20130272968A1 (Bayer, published 2013)
